# Assay results published in the nanobody polyreactivity screen of Harvey et al. (2022).
# Assay: yeast display, Sf9 membrane polyspecificity reagent, FACS + sequencing; frameworks hold sequencing errors
# Outline: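 Galactose induction of a Saccharomyces cerevisiae BJ5465 synthetic nanobody display library ran 36–48 hours. The cells were then stained for 1 hour at 4 °C with 10% biotinylated, detergent-solubilized Sf9 membrane reagent, pulled down on streptavidin microbeads and FACS-sorted into low and high (top ~1%) gates on expression and reagent-binding fluorescence. Labels for polyreactivity follow the gate of origin.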
row,Sequence,polyreactivity (PSR sort gate)
1,QVQLVESGGGLVQAGGSLRLSCAPSGRIFQYNAMGWYRQAPGKERELGAAISNSTTRTYYADSVKGRFTISRDNAKNTVYLQMNSLKPEDTGVYYCAARGYFWSSYKYDYWVQGTQVTVSS,high polyreactivity
2,QVHLVESGGGLVQAGGSLRLSCAASGSTFIYYGMGWYRHAPGKERELVATISSGGSTNYADSVKGRFTISRDNAKNTVYLQMNSLKPEDTAVYYCAVAPYYYGLLWNTFYEYYYWGQGTQVTVSS,high polyreactivity
3,QVQLVESGGGLVQAGGSLRLSCAASGFIFETYAMGWYRQEPGKERELVAAISRGASTYYADSVKGRFTISRDNAKNTVYLQMNSLKPEDTAVYYCAAKRLSWHRYGYWGQGTQVTVSS,low polyreactivity
4,QVQLVESGGGLVQAGGSLRLSCAGSGIIFFPYAMGWYRPAPGKERELVASINISDSSTYYADSVKGRFTISRDNAKNTVYLQMNSLKPQDTAVYYCAADNRGDSWYWHGYWGQGTQVTVSS,low polyreactivity
5,QVQLVESGGGLVQAGGSLRLSCAASGRTFSYYAMGWYRQAPGKERELGAANSGGGRTNYADSVKGRFTISRDNAKNTVYLQMNSLKPEDTAVYYCAAGASRKYQYYSRSYDYWGQGTQVTVSS,high polyreactivity
6,QDQHVESGGGLVQAGGSLRLSCAASGLTFTLYAMGWYRKAPGKERELVAAITRSGGSTSYADSVKGRFTISRDYAKNTVYLQMNSLKPEDTAVYYCNADSPGYTAVRLVEFDYWGQGTQVTVSS,low polyreactivity
7,QVQLVESGGGLVQAGGSLRLSCAASGFTFSYYAMGWYRQAPGKERELVAAISWNGGSTYYADSVKGRFTISRDNAKNTVYLQMNCLKPEDTAVYYCAADSLLYYYDTGYEYWGQGTQVTVSS,high polyreactivity
8,QVHLQESGGGLVQAGGSLRLSCEASGSISRYYDMVWYRQAPGKELEFVAGISGGAITYYADSVKGRFTISRDNAKNTVYLQMNSLKPEDTAVYYCAADTGVYQYHSYWGQGTQVTVSS,low polyreactivity
9,QVQLVESGGGLVQAGGSLRLSCAASGFTFVWYAMGWYRPAPGKERELVAAISRRGTRTYYADSVKGRFTISRDNAKNTVYLQMNSLKPEDTAVYYCAASNGYQAVTYDYWGQGTQVTVSS,high polyreactivity
10,QVQLVESGGGLVQAGGSLRLSCADSGRILIGYTRGWYRQAPGKERELVARINYSGGSTYYADSVKGRFTISRDNAKNTVYLQMNSLKPEDTAVYYCAADVRRGYYTWPPRRVYYWGQGTQVTVSS,high polyreactivity
11,QVQLVESGGGLVQAGGSLRLSCAASGSTFSLNAMGWYRQAPGKERELVAAISGSGGSTYYADSVKGRFTISRDNAKHTVYLQMNSLKPEDTAVYYCNKYYYPLRKSFGYWGQGTQVTVSS,high polyreactivity
12,QVQLEESGGGLFQAGGSLRLSCAASGSTITRYAMGCYRQAPGKEREIVAVISRSGGSTYYADSVKGLFTISRDNAKNTVYLQINSLKPEDTAVYYCAAKYYGGRRSPYSYGYWGQGTQVTVSS,high polyreactivity
13,QVQIVESGGGLVQAGGSLRISCAATGSTFDSFAMGWYRQAPGKERELVDAITRRGTRTYYADSVKGRFTISRDNAKNTVYLQRNSLKPEDTAVYYCNAVTQCSKTPGYGFNYWGQGTQVTVSS,high polyreactivity
14,QVQLVESGGGLVQAGGSLRLSCAASGSIFWVYAMGWYRQAPGKERELVAAISSGGSTNYADSVKGRFTISRDNAKNTVYLQMNSLKPEDTAVYYCAAVIRTVRERYGFWGQGTQVTVSS,high polyreactivity
15,QVQLVESGGGLVQAGGSLRLSCAASGSTFDINTMGWYRQAPGKEREFVAAITDSDDSTYYADSVKGRFTISRDNAKNTVYLQMNSLKPEDTAVYYCAHDYDGYVWDTEYDYWGQGTQVTVSS,low polyreactivity
16,QVQLVESGGGIVQAGGSLRLRCAASGSTFKVYAIGWYRQATGKERELVAAISRGGRTYYADSVKGRFTISRDNAKNTVYLQMNSLKPEDTAVYYCAAGDQYKTRRNGYGYWGQGTQVTLSS,high polyreactivity
17,QVQLVESGGGLVQAGGSLRLSCAASGRTFWWYAMGWYRQAPGKERELVATINVSGGSTYYADSVKGRFTISRDNAKNTVYFQINSLKPEDTAVYYCNKRGFYTPSVSYDYWGQGTQVTVSS,low polyreactivity
18,QVQLVESGGGLVQAGGSLRLSCAASGSIFKGYAMGWYRQAPGKEREFVAAITSSDSNTNYADSVKGRFTFSRDNAKNTVYLQLHTLKPEDTAVYYCNARIYNRLYVPHYGFNYWGQGTQVTVSS,low polyreactivity
19,QVQLVESGGGLVQAGGSLRLSCAASGRIFKYNAKGWYRQAPGKERELVAAISGTGGSTYYADSVKGRFTISRDNAKNTVYLQMNSLKPEDTAVYYCNRRYYGHSTWKYDYWAQGTQVTVSS,high polyreactivity
20,QVQLVESRGGIVQAGGSLRLSCAASGFTFYFYAKGWYRQAPGKERELVAGISRGSRTNYADSVKGRFTISRDNAKNTVYLQMNSLKPEDTAVYYCAAEVSYWGLGTQVTVSS,low polyreactivity
21,QVQLVESGGCLVQAGGSLRLSCAASGRTIRENVMGWYIQAPGKERELVAAITGNDGTTYYADSVKGRFTISRDNAKNTVNLQMNSLKPEDTAVYYCASERGDSAYRKYDYWGQGTQVTVSS,low polyreactivity

row,Sequence,polyreactivity (PSR sort gate)
1,QVQLVESGGGLVQAGGSLRLSCAASGRTFYPYAMGWYRQAPRKERELVAAISRSGGSTYADSVKGRFTISRDNAKNTVYLQMNSLKREDTAVYYCATRRKTYLSFNYDYWGQGTQVTVSS,low polyreactivity
2,QVQLVESGGGLVQAGGSLRLSCAASGRIFHYYAMGWYRQAPGKERELVAAINKSGGRTYYADSVKGRFTISRDNAKNTVYLQMNSLKPEDTAVYYCAADVPGVTTSYAPYDSDYWGQGTQVTVSS,high polyreactivity
3,QVQLVESGGGLVQAGGSLRLSCAASAFIFGRYVMGWYIQAPGKEREVVAAISWSGGRTYYADSVKGRFTISRDNAKNTVYLQMNSLKPEDTAVYYCAAESSYPSYDGYYWGQGTQVTVSS,high polyreactivity
4,QVQLVESGGGLVQAGGSLRLICAASGITFRRYTMGWYREAPGKERELVATISLSDGNTYYADSVKGRFTISRDNAKYTLYLQMNSLKPEDTAVYYCNARHTWHQTYDYWGQGTIVTVSS,low polyreactivity
5,QVQLVESGGGLVQAGGSLRLSCAASGFTFYTYAMGWYRPAPGKERELVATITIGDGSTYYADSVKGRFTISRDNAKNTVYLQMNSLKPEDTAVYYCNRDSVGYDYWGQGSQVTVSS,low polyreactivity
6,QVQLVESGGGLVQAGGSLRLSCAASGRTFDPNAMGWYRQAPGKERELVAVITARGGNTSYADSVKGRFTISRDNAKNTVYLQMISLKPEDTAVYYCAAPADDTVHYQNYYWGQGTQVTVSS,low polyreactivity
7,QVQLVESGGGLVQAGGSLRLSCAASGRTFVYTMGWYRQAPGKERELVAAIRYSGGRTYYADSVKGRFTISRDNAQNTVYLQMNSLKPEDTAVYYCAARNYATGVRYDYWGQVTQVTVSS,high polyreactivity
8,QVQLVESGGGLVQAGGSLRLSCAASGRTFFIYAMGWYRQAPGKERELVAAIRWRGGSTYYADSVKGRFTISRDNAKNTVYLQMNSLKPEDTAVYYCAASNRQARYEDYYWGQGTQVTVSS,high polyreactivity
9,QVQLVESGGGVVQAGGSLRLSGAASGTLDGNAMGWYRPAPGKERELVAAISRCGGRTYYADSVKGRFTISRDNAKNTVYLQMNSQKPEDTAVYYCNTVSKPGYAYNYWGQGTQVTVSS,high polyreactivity
10,QVQLEESGGCLVQAGGSLRLSCAASGITFYGNVMGWYRQAPGKERELVAAISWSGGRTYYADSVKGRFTISRDNAKNTVSVQMNSLKPEDTAVDFCAAEGTTNRGVYASYDYWGQGTQVTVSS,low polyreactivity
11,QVQLVESGVGLLQAGGSLSLSCSASGSTLYYAMGWYRQAPGKERELVASITFSTGSTYYADSVKGRFTISRDNAKNTVYLQMNSLKPEDTAVYYCATGVDTYYLTVEHDSWGQGTQVTVSS,low polyreactivity
12,QVQLVESGGGLDQAGGSLRLICAASGRIFKWYAMGWYRQAPGKERELVATITWSGGSTYYADSVKGRFTISRDNAQNTVYLQMNSLKAEDTAVYYCNADTWLALPCFDYWGQGTQVTVSS,high polyreactivity
13,QVQLVESGGGLVQAGGSLRLSCAASGNIFRRYAMGWYRQAPGKERELVAAITWSGGSTYYADSVKGRFTISRDNAKNTVYLQMNSLKPEDTAVYYCAARRFWHYGYPGAYIGFGYWGQGTQVTVSS,high polyreactivity
14,QVQLVESGGGLVQAGGSLRLSCAASGRTFQYYAMGWYRQAPGQERELVAAITSGGSTYYADSVKGRFTISRDNAKNTVYLQMNSLKPEDTAVYYCAATFYYSGHYDYWGQGTQVTVSS,low polyreactivity
15,QGQLVESGGGLVQAGGSLRLSCAASGFTFPHYAMGWYRQAPGKERELVAAISWSGGSTFSADSVKGRFTISRDTAKNNVYLQMNSLKPADTAVYYCAARSRSWTPYYYWGQGTQVTVSS,high polyreactivity
16,QVQLVESGGGLVQAGGSLRLSCAASGIIFWHYAMGWYRQAPGKERELVAAISSRGGYTYYADSVKGRFTISRDNAKNTVSLQMNSLKPEDTAVYYCNAGYYTHRYRFLVQGDYWGQGTQVTVSS,high polyreactivity
17,QVQLVESGGGLVQAGGSLRLSCAASGLTFYGNAMGWYRQAPGKERELVADISLSGGRTFYADSVKGRFTISRDNAKNTVYLQMNSLKPEDTAVYYCAAVWRTGWYYEYYHWGQGTQVTVSS,low polyreactivity
18,QVQLVESGGGLVQAGGSLRLSCAASGITFAGYAMGWYRQAPGKERELVAAITRGGGITYYADSVKGRFTISRDNAKNTVYLQMNSLKPEDTPVDYCNAVVTSAAGYFPLLYDYWGQGTQVTVSS,high polyreactivity
19,QVQLVESGGGLVQAGGSLRLSCAASGSIFYTNVMGWYRQAPGKERELVAAISSSGDRTYYADSVKGRFTISRDNAKNTVYLQMNSLKPEDTAVYYCAAQSYRSRYYYWGQGTQVTVSS,high polyreactivity
20,QVQLVESGGGLVQAGGSLRLSCAASGFTFKENTIGRYRQAPGKEMELVAAMSWSGGGTYYADSVKGRFTISRDNGKNTVYLQMNSLKPEDTAVYYCAALQRRDHNGDYWGQGTQVTVSS,low polyreactivity
